Experimental findings from patent US20240059799A1 (Pfizer, published 2024) are described below.

To fix the notation:
B1: TL1A-0012 (antibody, IgG1, V domains shown)
VH: QVQLVQSGAEVKKPGASVKVSCKASGYDFTYYGISWVRQAPGQGLEWMGWISTYNGNTHYADSLQGRVTMTTDTSTRTAYMELRSLRSDDTAVYYCARENYYGSGAYRGGMDVWGQGTTVTVSS
VL: EIVLTQSPATLSLSPGERATLSCRASQSVSSYLAWYQQKPGQAPRLLIYDASNRATGIPARFSGSGSGTDFTLTISSLEPEDFAVYYCQQRSNWPWTFGQGTKVEIKR
notes: IgG1/kappa variant of TL1A-0002
B2: TL1A-0026 (antibody, IgG1, V domains shown)
VH: QVQLVQSGAEVKKPGASVKVSCKASGYDFTYYGISWVRQAPGQGLEWMGWISTYNGNEHYADSLQGRVTMTTDTSTRTAYMELRSLRSDDTAVYYCARENYYGSGAYRGGMDVWGQGTTVTVSS
VL: EIVLTQSPATLSLSPGERATLSCRASQSVSSYLAWYQQKPGQAPRLLIYDASNRATGIPARFSGSGSGTDFTLTISSLEPEDFAVYYCQQRSNWPWTFGQGTKVEIKR
notes: as for B1
B3: TL1A-0023 (antibody, IgG1, V domains shown)
VH: QVQLVQSGAEVKKPGASVKVSCKASGYDFTYYGISWVRQAPGQGLEWMGWISTYNGNDHYAPSLQGRVTMTTDTSTRTAYMELRSLRSDDTAVYYCARENYYGSGAYRGGMDVWGQGTTVTVSS
VL: EIVLTQSPATLSLSPGERATLSCRASQSVSSYLAWYQQKPGQAPRLLIYDASNRATGIPARFSGSGSGTDFTLTISSLEPEDFAVYYCQQRSNWPWTFGQGTKVEIKR
notes: as for B1
B4: TL1A-0038 (antibody, IgG1, V domains shown)
VH: QVQLVQSGAEVKKPGASVKVSCKASGYDFTYYGISWVRQAPGQGLEWMGWISTYNGNTHYARMLQGRVTMTTDTSTRTAYMELRSLRSDDTAVYYCARENYYGSGDFRGGMDVWGQGTTVTVSS
VL: EIVLTQSPATLSLSPGERATLSCRASQSVSSYLAWYQQKPGQAPRLLIYDASNRATGIPARFSGSGSGTDFTLTISSLEPEDFAVYYCQQRSNWPWTFGQGTKVEIKR
notes: as for B1
B5: TL1A-0028 (antibody, IgG1, V domains shown)
VH: QVQLVQSGAEVKKPGASVKVSCKASGYDFTYYGISWVRQAPGQGLEWMGWISTYNGNTHYARMLQGRVTMTTDTSTRTAYMELRSLRSDDTAVYYCARENYWGSGAYRGGMDVWGQGTTVTVSS
VL: EIVLTQSPATLSLSPGERATLSCRASQSVSSYLAWYQQKPGQAPRLLIYDASNRATGIPARFSGSGSGTDFTLTISSLEPEDFAVYYCQQRSNWPWTFGQGTKVEIKR
notes: as for B1
B6: TL1A-0033 (antibody, IgG1, V domains shown)
VH: QVQLVQSGAEVKKPGASVKVSCKASGYDFTYYGISWVRQAPGQGLEWMGWISTYNGNTHYARMLQGRVTMTTDTSTRTAYMELRSLRSDDTAVYYCARENYYGSGAFRGGMDVWGQGTTVTVSS
VL: EIVLTQSPATLSLSPGERATLSCRASQSVSSYLAWYQQKPGQAPRLLIYDASNRATGIPARFSGSGSGTDFTLTISSLEPEDFAVYYCQQRSNWPWTFGQGTKVEIKR
notes: as for B1
B7: TL1A-0019 (antibody, IgG1, V domains shown)
VH: QVQLVQSGAEVKKPGASVKVSCKASGYDFTYYGISWVRQAPGQGLEWMGWISTYNGNTHHARMLQGRVTMTTDTSTRTAYMELRSLRSDDTAVYYCARENYYGSGAYRGGMDVWGQGTTVTVSS
VL: EIVLTQSPATLSLSPGERATLSCRASQSVSSYLAWYQQKPGQAPRLLIYDASNRATGIPARFSGSGSGTDFTLTISSLEPEDFAVYYCQQRSNWPWTFGQGTKVEIKR
notes: as for B1
B8: TL1A-0027 (antibody, IgG1, V domains shown)
VH: QVQLVQSGAEVKKPGASVKVSCKASGYDFTYYGISWVRQAPGQGLEWMGWISAYNGNTNYAQKLQGRVTMTTDTSTRTAYMELRSLRSDDTAVYYCARENYYGSGAYRGGMDVWGQGTTVTVSS
VL: EIVLTQSPATLSLSPGERATLSCRASQSVSSYLAWYQQKPGQAPRLLIYDASNRATGIPARFSGSGSGTDFTLTISSLEPEDFAVYYCQQRSNWPWTFGQGTKVEIKR
notes: as for B1
B9: TL1A-0030 (antibody, IgG1, V domains shown)
VH: QVQLVQSGAEVKKPGASVKVSCKASGYDFTYYGISWVRQAPGQGLEWMGWISTYNGNTHYARMLQGRVTMTTDTSTRTAYMELRSLRSDDTAVYYCARENYYGSGEYRGGMDVWGQGTTVTVSS
VL: EIVLTQSPATLSLSPGERATLSCRASQSVSSYLAWYQQKPGQAPRLLIYDASNRATGIPARFSGSGSGTDFTLTISSLEPEDFAVYYCQQRSNWPWTFGQGTKVEIKR
notes: as for B1
B10: TL1A-0022 (antibody, IgG1, V domains shown)
VH: QVQLVQSGAEVKKPGASVKVSCKASGYDFTYYGISWVRQAPGQGLEWMGWISTYNGNEHYARMLQGRVTMTTDTSTRTAYMELRSLRSDDTAVYYCARENYYGSGAYRGGMDVWGQGTTVTVSS
VL: EIVLTQSPATLSLSPGERATLSCRASQSVSSYLAWYQQKPGQAPRLLIYDASNRATGIPARFSGSGSGTDFTLTISSLEPEDFAVYYCQQRSNWPWTFGQGTKVEIKR
notes: as for B1
B11: TL1A-0021 (antibody, IgG1, V domains shown)
VH: QVQLVQSGAEVKKPGASVKVSCKASGYDFTYYGISWVRQAPGQGLEWMGWISTYNGNDHYARMLQGRVTMTTDTSTRTAYMELRSLRSDDTAVYYCARENYYGSGAYRGGMDVWGQGTTVTVSS
VL: EIVLTQSPATLSLSPGERATLSCRASQSVSSYLAWYQQKPGQAPRLLIYDASNRATGIPARFSGSGSGTDFTLTISSLEPEDFAVYYCQQRSNWPWTFGQGTKVEIKR
notes: as for B1
B12: TL1A-0040 (antibody, IgG1, V domains shown)
VH: QVQLVQSGAEVKKPGASVKVSCKASGYDFTYYGISWVRQAPGQGLEWMGWISTYNGNTHYARMLQGRVTMTTDTSTRTAYMELRSLRSDDTAVYYCARENYYGSGDHRGGMDVWGQGTTVTVSS
VL: EIVLTQSPATLSLSPGERATLSCRASQSVSSYLAWYQQKPGQAPRLLIYDASNRATGIPARFSGSGSGTDFTLTISSLEPEDFAVYYCQQRSNWPWTFGQGTKVEIKR
notes: as for B1
B13: TL1A-0031 (antibody, IgG1, V domains shown)
VH: QVQLVQSGAEVKKPGASVKVSCKASGYDFTYYGISWVRQAPGQGLEWMGWISTYNGNTHYARMLQGRVTMTTDTSTRTAYMELRSLRSDDTAVYYCARENYYGSGDYRGGMDVWGQGTTVTVSS
VL: EIVLTQSPATLSLSPGERATLSCRASQSVSSYLAWYQQKPGQAPRLLIYDASNRATGIPARFSGSGSGTDFTLTISSLEPEDFAVYYCQQRSNWPWTFGQGTKVEIKR
notes: as for B1
B14: TL1A-0014 (antibody, IgG1, V domains shown)
VH: QVQLVQSGAEVKKPGASVKVSCKASGYDFTYYGISWVRQAPGQGLEWMGWISTYNGNTHYAQKLQGRVTMTTDTSTRTAYMELRSLRSDDTAVYYCARENYYGSGAYRGGMDVWGQGTTVTVSS
VL: EIVLTQSPATLSLSPGERATLSCRASQSVSSYLAWYQQKPGQAPRLLIYDASNRATGIPARFSGSGSGTDFTLTISSLEPEDFAVYYCQQRSNWPWTFGQGTKVEIKR
notes: as for B1
B15: TL1A-0013 (antibody, IgG1, V domains shown)
VH: QVQLVQSGAEVKKPGASVKVSCKASGYDFTYYGISWVRQAPGQGLEWMGWISTYNGNTHYAPSLQGRVTMTTDTSTRTAYMELRSLRSDDTAVYYCARENYYGSGAYRGGMDVWGQGTTVTVSS
VL: EIVLTQSPATLSLSPGERATLSCRASQSVSSYLAWYQQKPGQAPRLLIYDASNRATGIPARFSGSGSGTDFTLTISSLEPEDFAVYYCQQRSNWPWTFGQGTKVEIKR
notes: as for B1
B16: TL1A-0024 (antibody, IgG1, V domains shown)
VH: QVQLVQSGAEVKKPGASVKVSCKASGYDFTYYGISWVRQAPGQGLEWMGWISTYNGNEHYAPSLQGRVTMTTDTSTRTAYMELRSLRSDDTAVYYCARENYYGSGAYRGGMDVWGQGTTVTVSS
VL: EIVLTQSPATLSLSPGERATLSCRASQSVSSYLAWYQQKPGQAPRLLIYDASNRATGIPARFSGSGSGTDFTLTISSLEPEDFAVYYCQQRSNWPWTFGQGTKVEIKR
notes: as for B1
B17: TL1A-0029 (antibody, IgG1, V domains shown)
VH: QVQLVQSGAEVKKPGASVKVSCKASGYDFTYYGISWVRQAPGQGLEWMGWISTYNGNTHYARMLQGRVTMTTDTSTRTAYMELRSLRSDDTAVYYCARENLYGSGAYRGGMDVWGQGTTVTVSS
VL: EIVLTQSPATLSLSPGERATLSCRASQSVSSYLAWYQQKPGQAPRLLIYDASNRATGIPARFSGSGSGTDFTLTISSLEPEDFAVYYCQQRSNWPWTFGQGTKVEIKR
notes: as for B1

This test has as its target T1, recombinant human TL1A (human, UniProt O95150 71-251).
T1 construct: homotrimer; biotinylated for SPR capture; the ELISA paragraphs say only 'recombinant TL1A'; also called TNFSF15
T1 chain: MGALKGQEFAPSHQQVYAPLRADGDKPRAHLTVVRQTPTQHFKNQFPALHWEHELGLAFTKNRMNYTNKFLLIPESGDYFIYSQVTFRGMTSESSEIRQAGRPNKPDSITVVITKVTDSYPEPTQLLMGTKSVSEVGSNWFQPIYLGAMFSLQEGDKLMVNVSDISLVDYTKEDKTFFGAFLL
Kind of test: competition ELISA vs bio-TL1A-0002. As to the method:
For this competition ELISA assay procedure, 96-well high binding plates (Corning, product number 3590) were coated with 1 μg/mL recombinant TL1A in 100 μL/well in Phospate Buffered Saline (PBS) overnight at 4° C. Plates were then blocked in PBS+0.02% casein solution and washed with PBS+0.05% Tween-20 following standard ELISA protocol. […] Plates were washed with PBS+0.05% Tween-20 following standard ELISA protocol, and Streptavidin-HRP (Southern Biotech, product number 7100-05) diluted to 1:10,000 in assay buffer was added to plates and incubated for 25-30 minutes at room temperature. Next, the plates were washed with PBS+0.05% Tween-20 following standard ELISA protocol, and then TMB substrate (BioFX Laboratories, catalog number TMBW-0100-01) was added to plates. Reactions were stopped after approximately 5 minutes by adding 0.18 M ortho-phosphoric acid to each well and absorbance was read at 450 nm.
Regarding B1, the “Bioactivity relative to TL1A-0002” value came out at 1.1 fold and the IC50 – broadly, the concentration that gives 50% inhibition – turned out to be 5 nM.

For the molecule B2, the “Bioactivity relative to TL1A-0002” value came to 2 fold and the IC50 came to 8.9 nM.

Regarding B3, the “Bioactivity relative to TL1A-0002” value was 1.3 fold and the IC50 came out at 5.6 nM.

For B4, the “Bioactivity relative to TL1A-0002” value turned out to be 1.6 fold and the IC50 stood at 7.2 nM.

As for B5, the “Bioactivity relative to TL1A-0002” value worked out at 1.2 fold and the IC50 was 5.4 nM.

Regarding B6, the “Bioactivity relative to TL1A-0002” value was 0.8 fold and the IC50 is 3.6 nM.

In the case of B7, the “Bioactivity relative to TL1A-0002” value turned out to be 1.1 fold and the IC50 was 5 nM.

Regarding B8, the “Bioactivity relative to TL1A-0002” value was 1.9 fold and the IC50 was 8.3 nM.

B9: the “Bioactivity relative to TL1A-0002” value was 1.4 fold and the IC50 was determined as 6.1 nM.

With B10, the “Bioactivity relative to TL1A-0002” value stood at 1.5 fold and the IC50 was 6.9 nM.

Consider B11, for which the “Bioactivity relative to TL1A-0002” value is 1.3 fold and the IC50 is 6 nM.

B12: the “Bioactivity relative to TL1A-0002” value is 1 fold and the IC50 was 4.7 nM.

As to B13, the “Bioactivity relative to TL1A-0002” value stood at 1.6 fold and the IC50 is 7.4 nM.

As to B14, the “Bioactivity relative to TL1A-0002” value was found to be 1.1 fold and the IC50 stood at 5.1 nM.

For B15, the “Bioactivity relative to TL1A-0002” value stood at 1.2 fold and the concentration for half-maximal inhibition (IC50) is 5.5 nM.

On to B16, for which the “Bioactivity relative to TL1A-0002” value turned out to be 1.2 fold and the IC50 came out at 5.4 nM.

Take B17: the “Bioactivity relative to TL1A-0002” value came to 1.7 fold and the IC50 was 7.8 nM.
